Results on one substance are retold here after US20170290886.

For this series, the system named is Recombinant GST-tagged MeCP2 protein (Prospec).

For His-tagged PIAS1 protein, the “MeCP2 SUMOylation (in vitro SUMOylation assay with purified proteins)” value is “MeCP2 SUMOylation occurred when E1, E2, PIAS1 (the protein inhibitor of activated STAT1) and MeCP2 proteins were added”.
